Measurements from patent US7521053 (dated 2009).
Changes are numbered by the printed parent chain.

T1: mAng-2 (mouse, UniProt O35608)
T1 chain: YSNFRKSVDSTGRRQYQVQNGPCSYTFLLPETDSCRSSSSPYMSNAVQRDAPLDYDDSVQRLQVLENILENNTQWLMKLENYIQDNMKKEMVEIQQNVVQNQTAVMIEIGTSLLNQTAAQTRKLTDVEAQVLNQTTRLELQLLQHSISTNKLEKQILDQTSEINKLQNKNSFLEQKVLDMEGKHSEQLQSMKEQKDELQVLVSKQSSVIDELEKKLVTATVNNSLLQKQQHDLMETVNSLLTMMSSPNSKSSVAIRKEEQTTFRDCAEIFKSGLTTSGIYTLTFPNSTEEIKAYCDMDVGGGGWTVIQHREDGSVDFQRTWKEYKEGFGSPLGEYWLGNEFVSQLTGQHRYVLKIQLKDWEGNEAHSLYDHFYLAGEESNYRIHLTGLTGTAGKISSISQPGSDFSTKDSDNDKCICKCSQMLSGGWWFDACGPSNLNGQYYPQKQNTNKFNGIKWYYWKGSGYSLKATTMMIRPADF

T2: hAng-2 (human, UniProt O15123)
T2 chain: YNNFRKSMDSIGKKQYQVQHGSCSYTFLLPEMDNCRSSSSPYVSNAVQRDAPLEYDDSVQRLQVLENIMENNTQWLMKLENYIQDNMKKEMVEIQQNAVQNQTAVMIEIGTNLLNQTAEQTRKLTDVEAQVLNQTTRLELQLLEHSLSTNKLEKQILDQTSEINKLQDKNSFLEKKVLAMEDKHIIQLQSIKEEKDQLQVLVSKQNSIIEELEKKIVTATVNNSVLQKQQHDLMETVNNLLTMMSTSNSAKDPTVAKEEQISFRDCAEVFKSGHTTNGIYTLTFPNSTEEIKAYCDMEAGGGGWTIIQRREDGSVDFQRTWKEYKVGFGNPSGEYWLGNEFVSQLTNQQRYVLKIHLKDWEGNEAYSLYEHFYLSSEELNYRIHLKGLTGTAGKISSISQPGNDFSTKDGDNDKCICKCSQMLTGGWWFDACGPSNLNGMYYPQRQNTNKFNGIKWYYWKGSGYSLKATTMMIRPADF

T3: hAng-1 (human, UniProt Q15389)
T3 chain: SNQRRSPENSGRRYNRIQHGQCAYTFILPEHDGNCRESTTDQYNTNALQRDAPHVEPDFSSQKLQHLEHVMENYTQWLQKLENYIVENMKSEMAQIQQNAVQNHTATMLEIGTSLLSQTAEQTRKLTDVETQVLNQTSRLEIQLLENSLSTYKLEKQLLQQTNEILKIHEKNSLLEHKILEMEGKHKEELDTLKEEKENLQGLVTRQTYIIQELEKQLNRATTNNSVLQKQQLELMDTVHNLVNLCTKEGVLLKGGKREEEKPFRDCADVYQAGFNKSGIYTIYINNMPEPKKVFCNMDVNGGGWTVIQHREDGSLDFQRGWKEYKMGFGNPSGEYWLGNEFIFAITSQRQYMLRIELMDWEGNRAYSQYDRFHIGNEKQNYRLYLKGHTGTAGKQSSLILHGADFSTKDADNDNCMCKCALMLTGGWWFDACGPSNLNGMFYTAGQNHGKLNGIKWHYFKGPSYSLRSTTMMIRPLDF

B1: Ab 546 (antibody, V domains shown)
VH: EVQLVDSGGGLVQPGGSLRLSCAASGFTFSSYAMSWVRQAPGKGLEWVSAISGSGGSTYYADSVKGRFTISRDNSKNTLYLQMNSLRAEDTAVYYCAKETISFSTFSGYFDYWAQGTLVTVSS
VL: QSVLTQPSSVSEAPRQRVTISCSGSASNIGANGVSWYHQVPGKAPRLLLSHDGLVTSGVPDRLSVSKSGTSASLAISGLHSDDEGDYYCAVWDDSLNAVVFGGGTKLTVL
B2: Ab 544 (antibody, V domains shown)
VH: QVQLVQSGAEVKKPGASVKVSCKASGGTFSSYAISWVRQAPGQGLEWMGGIIPIFGTANYAQKFQGRVTITADESTSTAYMELSSLRSEDTAVYYCARFESGYWGDAFDIWGQGTMVTVSS
VL: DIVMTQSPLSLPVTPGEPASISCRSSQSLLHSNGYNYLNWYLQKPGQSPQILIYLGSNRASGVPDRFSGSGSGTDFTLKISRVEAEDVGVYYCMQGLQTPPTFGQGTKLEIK
B3: Ab 565 (antibody, V domains shown)
VH: QVQLVQSGAEVKKPGSSVKVSCKASGGTFSSYAISWVRQAPGQGLEWMGGIIPIFGTANYAQKFQGRVTITADESTSTAYMELSSLRSEDTAVYYCARSPIYYDILTGIDAFDIWGQGTMVTVSS
VL: EIVLTQSPGTLSLSPGERATLSCRASQSVSSSSLAWYQQKPGQAPRLLVYAASSRATGIPDRFSGSGSGTDFTLTISRLEPEDFAVYYCQHYGSSPRTFGQGTKVEIK
B4: Ab 533 (antibody, V domains shown)
VH: EVQLVQSGGGVVQPGRSLRLSCAASGFTFSSYGMHWVRQAPGKGLEWVSYISSSGSTIYYADSVKGRFTISRDNAKNSLYLQMNSLRAEDTAVYYCARDLLDYDILTGYGYWGQGTLVTVSS
VL: SYELTQPPSVSVSPGQTARITCSGDALPKQYAYWYQQKPGQAPVLVIYKDSERPSGIPERFSGSSSGTTVTLTISGVQAEDEADYYCQSADSSHVVFGGGTKLTVL
B5: Ab 551 (antibody, V domains shown)
VH: QVQLVQSGAEVKKPGSSVKVSCKASGGTFSSYAISWVRQAPGQGLEWMGGIIPIFGTANYAQKFQGRVTITADESTSTAYMELSSLRSEDTAVYYCARGYDFWSGYSLDAFDIWGQGTMVTVSS
VL: not shown
B6: Ab 543 (antibody, V domains shown)
VH: QVQLVQSGAEVKKPGSSVKVSCKASGGTFSSYAISWVRQAPGQGLEWMGRIIPILGIANYAQKFQGRVTITADKSTSTAYMELSSLRSEDTAVYYCARPYYDFWSGPGGMDVWGQGTTVTVSS
VL: not shown
B7: Ab 553 (antibody, V domains shown)
VH: QVQLVQSGAEVKKPGASVKVSCKASGYTFTSYAMHWVRQAPGQRLEWMGWINAGNGNTKYSQKFQGRVTITRDTSASTAYMELSGLRSEDTAVYYCARGVDDYGGNSWAFDIWGQGTMVTVSS
VL: DIVMTQSPLSLPVTPGEPASISCRSSQSLLHSNGYNYLDWYLQKPGQSPQLLIYLGSNRASGVPDRFTGSGSATDFTLRISRVEAEDVGVYYCMQALQTPLTFGGGTKVEIK
B8: Ab 555 (antibody, V domains shown)
VH: QVQLQESGGGVVQPGRSLRLSCAASGFTFSSYAMHWVRQAPGKGLEWVAVISYDGSNKYYADSVKGRFTISRDNSKNTLYLQMNSLRAEDTAVYYCARSASDHYYDSSGYYSDAFDIWGQGTMVTVSS
VL: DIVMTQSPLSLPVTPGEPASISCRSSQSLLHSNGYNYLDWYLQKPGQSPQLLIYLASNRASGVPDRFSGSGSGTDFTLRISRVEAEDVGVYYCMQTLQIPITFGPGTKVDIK
B9: Ab 535 (antibody, V domains shown)
VH: B2 VH with A16S, E74K, R98A, E100S, S101P, G102F, Y103T, W104E, G105T
VL: QSVLTQPPSVSAAPGQKVTISCSGSNSNIGNNFVSWYQQLPGTAPKLLVYDNNKRPSGIPDRFSGSKSGTSATLGITGLQTGDEADYYCGTWDSSLSAAEVVFGGGTKLTVL
B10: Ab 540 (antibody, V domains shown)
VH: QVQLVQSGAEVKKPGSSVKVSCKASGGTFSSYAISWVRQAPGQGLEWMGGIIPILGIANYAQKFQGRVTITADKFTSTAYMELSSLGSEDTAVYYCARAVPGTEDAFDIWGQGTMVTVSS
VL: QSVLTQPPSVSAAPGQKVTISCSGSSSNIGANYVSWYQQLPGTAPKLLIYNNNKRPSGIPDRFSGSKSDTSATLGITGLQTGDEADYYCGAWDSSLSASWVFGGGTKLTVL
B11: Ab 531 (antibody, V domains shown)
VH: EVQLVQSGAEVKKPGSSVKVSCKASGGTFSSYAISWVRQAPGQGLEWMGGIIPILGIANYAQKFQGRVTITADKSTNTAYMELTSLTSDDTAVYYCARDREDTAMVFNYWGQGTLVTVSS
VL: B10 VL with I20V, A31N, N51D, D69G, A91T, S99F
B12: Ab 528 (antibody, V domains shown)
VH: QVQLVQSGAEVKKPGSSVKVSCKASGGTFSSYAISWVRQAPGQGLEWMGGIIPIFGTANYAQKFQGRVTITADESTSTAYMELSSLRSEDTAVYYCARGVVGDFDWLSFFDYWGQGTLVTVSS
VL: SYELTQPPSVSVSPGQTASITCSGDKLGYTYTSWFQQKPGQSPVLVIFQDFKRPSGIPERFSGSNSGNTATLTISGTQAMDEADYYCQAWDSTTAVVFGTGTKVTVL
B13: Ab 537 (antibody, V domains shown)
VH: QVQLVQSGAEVKKPGSSVKVSCKASGGTFSSYAISWVRQAPGQGLEWMGGIIPILGIANYAQKFQGRVTITADKSTSTAYMELSGLGSEDTAVYYCARGSSDAAVAGMWGQGTLVTVSS
VL: QSVLTQPPSVSAAPGQDVTISCSGNNSNIGNNYVSWYQQVPGTAPKLLVYDNHKRPSGISDRFSGSKSDTSATLDITGLQPGDEADYYCGTWDTSLSANWVFGGGTKLTVL

Biological target: T1, mAng-2
Assay: competition ELISA (Tie2-Fc)
B1 was tested, and the IC50 was 1.09 nM. B2 was tested, and the IC50 was 1.82 nM. B3 was tested, and the IC50 was 0.26 nM. For B4, the IC50 was 0.08 nM.

Biological target: T2, hAng-2
Assay: competition ELISA (Tie2-Fc)
Work on B1 yielded an IC50 of 0.37 nM. With B2 the IC50 was 0.97 nM. B3 was tested, and the IC50 was 0.26 nM. With B4 the IC50 was 0.3 nM.

Biological target: T3, hAng-1
Assay: competition ELISA (Tie2-Fc)
B2 showed an IC50 of 23.3 nM.

Biological target: T3, hAng-1
Assay: competition ELISA (no inhibition)
B5: no binding. B1: no binding. B6: no binding. B7: no binding. B8: no binding. B9: no binding. B3: no binding. B4: no binding. B10: no binding. B11: no binding. B12: no binding. B13: no binding.
